Measured values from the RNAGym collection of RNA variant scans (doi:10.1021/acssynbio.7b00057).

B1: Pistol ribozyme (parent)
chain: GGGUCGUUGUUCCAUAAUCGCGUGGAUAUGGCACGCAAGUUUCUACCGGGCACCGUAAAUGUCCGACUGGAGCCGUUCGGGCGGCUAUAAACAGACCUCAGGCCCGAAGCGUGGCGGCACCUGCCGCCGGUGGUAAAAAAGAUCGGAAGAGCACACGUCU

Variants of: B1
Experiment: aptazyme ON/OFF ratio, guanine; higher = stronger switching; co-transcriptional cleavage with and without guanine

Row | Variant | aptazyme ON/OFF ratio
1 | GGGUCGCCGCCCGAUAAUCGCGUGGAUAUGGCACGCAAGUUUCUACCGGGCACCGUAAAUGUCCGACUGGAGCCGUUCGGGCGGCUAUAAACAGACCUCAGGCCCGAAGCGUGGCGGCACCUGCCGCCGGUGGUAAAAAAGAUCGGAAGAGCACACGUCU | 1.28
2 | GGGUCGCCGCCCAAUAAUCGCGUGGAUAUGGCACGCAAGUUUCUACCGGGCACCGUAAAUGUCCGACUGGAGCCGUUCGGGCGGCUAUAAACAGACCUCAGGCCCGAAGCGUGGCGGCACCUGCCGCCGGUGGUAAAAAAGAUCGGAAGAGCACACGUCU | 1.31
3 | GGGUCGCCGCCCUAUAAUCGCGUGGAUAUGGCACGCAAGUUUCUACCGGGCACCGUAAAUGUCCGACUGGAGCCGUUCGGGCGGCUAUAAACAGACCUCAGGCCCGAAGCGUGGCGGCACCUGCCGCCGGUGGUAAAAAAGAUCGGAAGAGCACACGUCU | 1.38
4 | GGGUCGCCGCAGUAUAAUCGCGUGGAUAUGGCACGCAAGUUUCUACCGGGCACCGUAAAUGUCCGACUGGAGCCGUUCGGGCGGCUAUAAACAGACCUCAGGCCCGAAGCGUGGCGGCACCUGCCGCCGGUGGUAAAAAAGAUCGGAAGAGCACACGUCU | 1.2
5 | GGGUCGCCGCAGAAUAAUCGCGUGGAUAUGGCACGCAAGUUUCUACCGGGCACCGUAAAUGUCCGACUGGAGCCGUUCGGGCGGCUAUAAACAGACCUCAGGCCCGAAGCGUGGCGGCACCUGCCGCCGGUGGUAAAAAAGAUCGGAAGAGCACACGUCU | 1.15
6 | GGGUCGCCGCAGGAUAAUCGCGUGGAUAUGGCACGCAAGUUUCUACCGGGCACCGUAAAUGUCCGACUGGAGCCGUUCGGGCGGCUAUAAACAGACCUCAGGCCCGAAGCGUGGCGGCACCUGCCGCCGGUGGUAAAAAAGAUCGGAAGAGCACACGUCU | 1.29
7 | GGGUCGCCGCCAAAUAAUCGCGUGGAUAUGGCACGCAAGUUUCUACCGGGCACCGUAAAUGUCCGACUGGAGCCGUUCGGGCGGCUAUAAACAGACCUCAGGCCCGAAGCGUGGCGGCACCUGCCGCCGGUGGUAAAAAAGAUCGGAAGAGCACACGUCU | 1.34
8 | GGGUCGCCGCCAGAUAAUCGCGUGGAUAUGGCACGCAAGUUUCUACCGGGCACCGUAAAUGUCCGACUGGAGCCGUUCGGGCGGCUAUAAACAGACCUCAGGCCCGAAGCGUGGCGGCACCUGCCGCCGGUGGUAAAAAAGAUCGGAAGAGCACACGUCU | 1.24
9 | GGGUCGCCGCCAUAUAAUCGCGUGGAUAUGGCACGCAAGUUUCUACCGGGCACCGUAAAUGUCCGACUGGAGCCGUUCGGGCGGCUAUAAACAGACCUCAGGCCCGAAGCGUGGCGGCACCUGCCGCCGGUGGUAAAAAAGAUCGGAAGAGCACACGUCU | 1.24
10 | GGGUCGCCGCCUAAUAAUCGCGUGGAUAUGGCACGCAAGUUUCUACCGGGCACCGUAAAUGUCCGACUGGAGCCGUUCGGGCGGCUAUAAACAGACCUCAGGCCCGAAGCGUGGCGGCACCUGCCGCCGGUGGUAAAAAAGAUCGGAAGAGCACACGUCU | 1.31
11 | GGGUCGCCGCCUUAUAAUCGCGUGGAUAUGGCACGCAAGUUUCUACCGGGCACCGUAAAUGUCCGACUGGAGCCGUUCGGGCGGCUAUAAACAGACCUCAGGCCCGAAGCGUGGCGGCACCUGCCGCCGGUGGUAAAAAAGAUCGGAAGAGCACACGUCU | 1.19
12 | GGGUCGCCGCCUGAUAAUCGCGUGGAUAUGGCACGCAAGUUUCUACCGGGCACCGUAAAUGUCCGACUGGAGCCGUUCGGGCGGCUAUAAACAGACCUCAGGCCCGAAGCGUGGCGGCACCUGCCGCCGGUGGUAAAAAAGAUCGGAAGAGCACACGUCU | 1.15
13 | GGGUCGCCGCCACAUAAUCGCGUGGAUAUGGCACGCAAGUUUCUACCGGGCACCGUAAAUGUCCGACUGGAGCCGUUCGGGCGGCUAUAAACAGACCUCAGGCCCGAAGCGUGGCGGCACCUGCCGCCGGUGGUAAAAAAGAUCGGAAGAGCACACGUCU | 1.24
14 | GGGUCGCCGCCGCAUAAUCGCGUGGAUAUGGCACGCAAGUUUCUACCGGGCACCGUAAAUGUCCGACUGGAGCCGUUCGGGCGGCUAUAAACAGACCUCAGGCCCGAAGCGUGGCGGCACCUGCCGCCGGUGGUAAAAAAGAUCGGAAGAGCACACGUCU | 1.2
15 | GGGUCGCCGCCUCAUAAUCGCGUGGAUAUGGCACGCAAGUUUCUACCGGGCACCGUAAAUGUCCGACUGGAGCCGUUCGGGCGGCUAUAAACAGACCUCAGGCCCGAAGCGUGGCGGCACCUGCCGCCGGUGGUAAAAAAGAUCGGAAGAGCACACGUCU | 1.26
16 | GGGUCGCCGCGAGAUAAUCGCGUGGAUAUGGCACGCAAGUUUCUACCGGGCACCGUAAAUGUCCGACUGGAGCCGUUCGGGCGGCUAUAAACAGACCUCAGGCCCGAAGCGUGGCGGCACCUGCCGCCGGUGGUAAAAAAGAUCGGAAGAGCACACGUCU | 1.27
17 | GGGUCGCCGCGAAAUAAUCGCGUGGAUAUGGCACGCAAGUUUCUACCGGGCACCGUAAAUGUCCGACUGGAGCCGUUCGGGCGGCUAUAAACAGACCUCAGGCCCGAAGCGUGGCGGCACCUGCCGCCGGUGGUAAAAAAGAUCGGAAGAGCACACGUCU | 1.32
18 | GGGUCGCCGCGAUAUAAUCGCGUGGAUAUGGCACGCAAGUUUCUACCGGGCACCGUAAAUGUCCGACUGGAGCCGUUCGGGCGGCUAUAAACAGACCUCAGGCCCGAAGCGUGGCGGCACCUGCCGCCGGUGGUAAAAAAGAUCGGAAGAGCACACGUCU | 1.52

Row | Variant | aptazyme ON/OFF ratio
19 | GGGUCGCCGCAUGAUAAUCGCGUGGAUAUGGCACGCAAGUUUCUACCGGGCACCGUAAAUGUCCGACUGGAGCCGUUCGGGCGGCUAUAAACAGACCUCAGGCCCGAAGCGUGGCGGCACCUGCCGCCGGUGGUAAAAAAGAUCGGAAGAGCACACGUCU | 1.25
20 | GGGUCGCCGCAUAAUAAUCGCGUGGAUAUGGCACGCAAGUUUCUACCGGGCACCGUAAAUGUCCGACUGGAGCCGUUCGGGCGGCUAUAAACAGACCUCAGGCCCGAAGCGUGGCGGCACCUGCCGCCGGUGGUAAAAAAGAUCGGAAGAGCACACGUCU | 1.33
21 | GGGUCGCCGCAUUAUAAUCGCGUGGAUAUGGCACGCAAGUUUCUACCGGGCACCGUAAAUGUCCGACUGGAGCCGUUCGGGCGGCUAUAAACAGACCUCAGGCCCGAAGCGUGGCGGCACCUGCCGCCGGUGGUAAAAAAGAUCGGAAGAGCACACGUCU | 1.29
22 | GGGUCGCCGCACAAUAAUCGCGUGGAUAUGGCACGCAAGUUUCUACCGGGCACCGUAAAUGUCCGACUGGAGCCGUUCGGGCGGCUAUAAACAGACCUCAGGCCCGAAGCGUGGCGGCACCUGCCGCCGGUGGUAAAAAAGAUCGGAAGAGCACACGUCU | 1.33
23 | GGGUCGCCGCACUAUAAUCGCGUGGAUAUGGCACGCAAGUUUCUACCGGGCACCGUAAAUGUCCGACUGGAGCCGUUCGGGCGGCUAUAAACAGACCUCAGGCCCGAAGCGUGGCGGCACCUGCCGCCGGUGGUAAAAAAGAUCGGAAGAGCACACGUCU | 1.31
24 | GGGUCGCCGCACGAUAAUCGCGUGGAUAUGGCACGCAAGUUUCUACCGGGCACCGUAAAUGUCCGACUGGAGCCGUUCGGGCGGCUAUAAACAGACCUCAGGCCCGAAGCGUGGCGGCACCUGCCGCCGGUGGUAAAAAAGAUCGGAAGAGCACACGUCU | 1.18
25 | GGGUCGCCGCCGUAUAAUCGCGUGGAUAUGGCACGCAAGUUUCUACCGGGCACCGUAAAUGUCCGACUGGAGCCGUUCGGGCGGCUAUAAACAGACCUCAGGCCCGAAGCGUGGCGGCACCUGCCGCCGGUGGUAAAAAAGAUCGGAAGAGCACACGUCU | 1.31
26 | GGGUCGCCGCCGAAUAAUCGCGUGGAUAUGGCACGCAAGUUUCUACCGGGCACCGUAAAUGUCCGACUGGAGCCGUUCGGGCGGCUAUAAACAGACCUCAGGCCCGAAGCGUGGCGGCACCUGCCGCCGGUGGUAAAAAAGAUCGGAAGAGCACACGUCU | 1.1
27 | GGGUCGCCGCCGGAUAAUCGCGUGGAUAUGGCACGCAAGUUUCUACCGGGCACCGUAAAUGUCCGACUGGAGCCGUUCGGGCGGCUAUAAACAGACCUCAGGCCCGAAGCGUGGCGGCACCUGCCGCCGGUGGUAAAAAAGAUCGGAAGAGCACACGUCU | 1.3
28 | GGGUCGCCGCGGUAUAAUCGCGUGGAUAUGGCACGCAAGUUUCUACCGGGCACCGUAAAUGUCCGACUGGAGCCGUUCGGGCGGCUAUAAACAGACCUCAGGCCCGAAGCGUGGCGGCACCUGCCGCCGGUGGUAAAAAAGAUCGGAAGAGCACACGUCU | 1.1
29 | GGGUCGCCGCGGAAUAAUCGCGUGGAUAUGGCACGCAAGUUUCUACCGGGCACCGUAAAUGUCCGACUGGAGCCGUUCGGGCGGCUAUAAACAGACCUCAGGCCCGAAGCGUGGCGGCACCUGCCGCCGGUGGUAAAAAAGAUCGGAAGAGCACACGUCU | 1.15
30 | GGGUCGCCGCGGGAUAAUCGCGUGGAUAUGGCACGCAAGUUUCUACCGGGCACCGUAAAUGUCCGACUGGAGCCGUUCGGGCGGCUAUAAACAGACCUCAGGCCCGAAGCGUGGCGGCACCUGCCGCCGGUGGUAAAAAAGAUCGGAAGAGCACACGUCU | 1.13
31 | GGGUCGCCGCGACAUAAUCGCGUGGAUAUGGCACGCAAGUUUCUACCGGGCACCGUAAAUGUCCGACUGGAGCCGUUCGGGCGGCUAUAAACAGACCUCAGGCCCGAAGCGUGGCGGCACCUGCCGCCGGUGGUAAAAAAGAUCGGAAGAGCACACGUCU | 1.38
32 | GGGUCGCCGCGGCAUAAUCGCGUGGAUAUGGCACGCAAGUUUCUACCGGGCACCGUAAAUGUCCGACUGGAGCCGUUCGGGCGGCUAUAAACAGACCUCAGGCCCGAAGCGUGGCGGCACCUGCCGCCGGUGGUAAAAAAGAUCGGAAGAGCACACGUCU | 1.18
33 | GGGUCGCCGCAUCAUAAUCGCGUGGAUAUGGCACGCAAGUUUCUACCGGGCACCGUAAAUGUCCGACUGGAGCCGUUCGGGCGGCUAUAAACAGACCUCAGGCCCGAAGCGUGGCGGCACCUGCCGCCGGUGGUAAAAAAGAUCGGAAGAGCACACGUCU | 1.32
34 | GGGUCGCCGCAGCAUAAUCGCGUGGAUAUGGCACGCAAGUUUCUACCGGGCACCGUAAAUGUCCGACUGGAGCCGUUCGGGCGGCUAUAAACAGACCUCAGGCCCGAAGCGUGGCGGCACCUGCCGCCGGUGGUAAAAAAGAUCGGAAGAGCACACGUCU | 1.05
35 | GGGUCGCCGCCCCAUAAUCGCGUGGAUAUGGCACGCAAGUUUCUACCGGGCACCGUAAAUGUCCGACUGGAGCCGUUCGGGCGGCUAUAAACAGACCUCAGGCCCGAAGCGUGGCGGCACCUGCCGCCGGUGGUAAAAAAGAUCGGAAGAGCACACGUCU | 1.46
36 | GGGUCGCCGCGCCAUAAUCGCGUGGAUAUGGCACGCAAGUUUCUACCGGGCACCGUAAAUGUCCGACUGGAGCCGUUCGGGCGGCUAUAAACAGACCUCAGGCCCGAAGCGUGGCGGCACCUGCCGCCGGUGGUAAAAAAGAUCGGAAGAGCACACGUCU | 1.23
